Assay in all cases: fluorescence polarisation
Experiment [1] has as its target L2-FAM: Cyclo(Ac-…)LFAApa[…]-NH2.
Experiment [2] deals with L4-FAM: Cyclo(Ac-…)pa[…]-NH2.
The target in experiment [3] is S3-FAM: Cyclo(Ac-y…)pa[…]-NH2.
Experiment [4] concerns the target S5-FAM: Cyclo(Ac-y…)pa[…]-NH2.
For experiment [5], the target named is L4-FAM: Cyclo(Ac-…)pa[…]-NH2. The source holds these as a separate data set.
Experiment [6] addresses S3-FAM: Cyclo(Ac-y…)pa[…]-NH2. The source holds these as a separate data set.
The target in experiment [7] is S5-FAM: Cyclo(Ac-y…)pa[…]-NH2. This is another data set of the same source.

Like-named read-outs stand apart in the source and are kept apart here.

On to “Recombinant soluble trimeric H1 HA ectodomain of A/California/04/2009 (H1N1), fused to GCN4 trimeriz (domain or fragment)”, for which the Kd in experiment [1] came to 2.4 nM; in experiment [2] it was 1.1 nM; in experiment [3], 1.3 nM; in experiment [4], 1 nM; in experiment [5] it was 0.6 nM; in experiment [6] it was 0.8 nM. This substance also registered a Kd in experiment [7] of 0.6 nM.

The record behind these values is publication PMC9486808.
